In publication PMC9266650:

Legend:
[1] = target: T148-ADP-ribosylated-actin (100% TccC3-ADP-ribosylated actin) (not stated (purified from rabbit or chicken skeletal muscle)) (UniProt P68135); assay: fluorescence polarisation
[2] = target: Skeletal actin, unmodified (0% ADPR-actin control) (not stated (purified from rabbit or chicken skeletal muscle)) (UniProt P68135)

fold reduction of affinity against unmodified actin [1]: 6.4 fold | time at which 50% of actin is polymerized (t1/2); 2.5 µM pyrene-labeled (5%) G-actin, 0% modified, with 2.5 µM TMSB4 [2]: 2.04 h
Substance: Thymosin-β4 (peptide)
